Substrate in series [1]: O=C(NO)c1ccc(Cn2c(=O)n(CCc3ccccc3)c(=O)c3ccccc32)cc1
The note with it: Homo sapiens; Sf9.
Description: Competitive inhibition of human full-length recombinant HDAC6 expressed in baculovirus infected Sf9 insect cells assessed as substrate Km using Boc-Lys (Ac)-AMC as substrate preincubated for 10 mins followed by substrate addition and measured after 30 mins by fluorescence assay

Substrate in series [2]: CN1CCc2c(c3ccccc3n2Cc2ccc(C(=O)NO)cc2)C1
The note with it: Homo sapiens; Sf9.
Description: (§1) Inhibition of human full-length recombinant HDAC6 expressed in baculovirus infected Sf9 insect cells assessed as substrate Km using Boc-Lys (Ac)-AMC as substrate preincubated for 10 mins followed by substrate addition and measured after 30 mins by fluorescence assay

Substrate in series [3]: COc1ccccc1CCn1c(=O)c2ccccc2n(Cc2ccc(C(=O)NO)cc2)c1=O
The conditions noted are these: Homo sapiens; Sf9.
Description: as §1

Substrate in series [4]: O=C(NO)c1ccc(Cn2c(=O)n(CCc3ccccc3)c(=O)c3cccnc32)cc1
The conditions noted are these: Homo sapiens; Sf9.
Description: as §1

Substrate in series [5]: O=C(NO)c1ccc(Cn2c(=O)n(CCc3ccccc3)c(=O)c3ccccc32)cc1
The note with it: Homo sapiens.
Description: Competitive inhibition of human HDAC6 CD2 expressed in Escherichia coli BL21 (RIL) assessed as substrate Km using Boc-Lys (Ac)-AMC as substrate preincubated for 10 mins followed by substrate addition and measured after 30 mins by fluorescence assay

Substrate in series [6]: COc1ccccc1CCn1c(=O)c2ccccc2n(Cc2ccc(C(=O)NO)cc2)c1=O
The conditions noted are these: Homo sapiens.
Description: (§2) Inhibition of human HDAC6 CD2 expressed in Escherichia coli BL21 (RIL) assessed as substrate Km using Boc-Lys (Ac)-AMC as substrate preincubated for 10 mins followed by substrate addition and measured after 30 mins by fluorescence assay

Substrate in series [7]: O=C(NO)c1ccc(Cn2c(=O)n(CCc3ccccc3)c(=O)c3cccnc32)cc1
Description: as §2
The conditions noted are these: Homo sapiens.

B1: Protein deacetylase HDAC6 (Homo sapiens), Q9UBN7 (protein)
chain: MTSTGQDSTTTRQRRSRQNPQSPPQDSSVTSKRNIKKGAVPRSIPNLAEVKKKGKMKKLGQAMEEDLIVGLQGMDLNLEAEALAGTGLVLDEQLNEFHCLWDDSFPEGPERLHAIKEQLIQEGLLDRCVSFQARFAEKEELMLVHSLEYIDLMETTQYMNEGELRVLADTYDSVYLHPNSYSCACLASGSVLRLVDAVLGAEIRNGMAIIRPPGHHAQHSLMDGYCMFNHVAVAARYAQQKHRIRRVLIVDWDVHHGQGTQFTFDQDPSVLYFSIHRYEQGRFWPHLKASNWSTTGFGQGQGYTINVPWNQVGMRDADYIAAFLHVLLPVALEFQPQLVLVAAGFDALQGDPKGEMAATPAGFAQLTHLLMGLAGGKLILSLEGGYNLRALAEGVSASLHTLLGDPCPMLESPGAPCRSAQASVSCALEALEPFWEVLVRSTETVERDNMEEDNVEESEEEGPWEPPVLPILTWPVLQSRTGLVYDQNMMNHCNLWDSHHPEVPQRILRIMCRLEELGLAGRCLTLTPRPATEAELLTCHSAEYVGHLRATEKMKTRELHRESSNFDSIYICPSTFACAQLATGAACRLVEAVLSGEVLNGAAVVRPPGHHAEQDAACGFCFFNSVAVAARHAQTISGHALRILIVDWDVHHGNGTQHMFEDDPSVLYVSLHRYDHGTFFPMGDEGASSQIGRAAGTGFTVNVAWNGPRMGDADYLAAWHRLVLPIAYEFNPELVLVSAGFDAARGDPLGGCQVSPEGYAHLTHLLMGLASGRIILILEGGYNLTSISESMAACTRSLLGDPPPLLTLPRPPLSGALASITETIQVHRRYWRSLRVMKVEDREGPSSSKLVTKKAPQPAKPRLAERMTTREKKVLEAGMGKVTSASFGEESTPGQTNSETAVVALTQDQPSEAATGGATLAQTISEAAIGGAMLGQTTSEEAVGGATPDQTTSEETVGGAILDQTTSEDAVGGATLGQTTSEEAVGGATLAQTTSEAAMEGATLDQTTSEEAPGGTELIQTPLASSTDHQTPPTSPVQGTTPQISPSTLIGSLRTLELGSESQGASESQAPGEENLLGEAAGGQDMADSMLMQGSRGLTDQAIFYAVTPLPWCPHLVAVCPIPAAGLDVTQPCGDCGTIQENWVCLSCYQVYCGRYINGHMLQHHGNSGHPLVLSYIDLSAWCYYCQAYVHHQALLDVKNIAHQNKFGEDMPHPH
On to B1, for which the Km in series [1] was 16.7 µM; in series [2], 29.1 µM; in series [3], 34.6 µM; in series [4] it was 21.8 µM; in series [5], 29.8 µM; in series [6], 32.5 µM. Moreover, in series [7], the Michaelis constant (Km) is 35.3 µM.
